This passage reports Kd results from PMC12176259, “Bacterial transcriptional repressor NrdR – a flexible multifactorial nucleotide sensor” (The Febs Journal, 2025).

“And” between values parts separate entries of the source, which are not always exact repeats. Equal values may be shown once.

For the series, the target named is T1, NrdR (EcoNrdR) (Escherichia coli K-12 MG1655) (UniProt P0A8D0).
T1 sequence: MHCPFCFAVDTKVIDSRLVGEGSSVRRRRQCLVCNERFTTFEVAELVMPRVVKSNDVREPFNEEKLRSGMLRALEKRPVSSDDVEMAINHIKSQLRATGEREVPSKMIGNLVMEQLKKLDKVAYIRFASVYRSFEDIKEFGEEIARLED
The series is described as follows: MST. As to conditions: 17 mM Tris-HCl pH 8.6 (room temperature), 100 mM NaCl, 7 mM MgCl2, 0.33 mM TCEP, 0.025% Tween-20, nucleotide effectors 1 mM each, 5 nM Cy5-dsDNA, low values mean tight binding.
On to “ACTATTTGCTATATATTGTGTGGTTGAATCTTTTTTCAACTACATCTAGTATCTCTG (double strand) [nrdHIEF promoter (nrdEF_Cy5)]”, for which the Kd was 0.138 µM and 0.328 µM and 0.187 µM. The same measure for “CATACCCCCTATATATAGTGTTCTAAGCAGCTTCCCGTACTACAGGTAGTCTGCATG (double strand) [nrdAB promoter box 1+2]”: 0.128 µM and 0.113 µM and 0.096 µM. The same measure for “GCAAAGCACTATATATAGACTTTAAAATGCGTCCCAACCCAATATGTTGTATTAATC (double strand) [nrdDG promoter]”: 0.16 µM and 0.171 µM and 0.152 µM.
